Numbered stars: 1 amine (or outer) side, 2 acyl side, 3 side chain; on linkers, the order of the positions; unused ones are H or OH. Bridge positions count the residues as written; N and C are the ends. Square brackets hold non-standard residues; d marks the D form. Primed or numbered codes have the meaning given here. Ends that are not written are not given here. acetyl″ = bridging -C(=O)-CH2- from a haloacetyl (chloroacetyl) group on the side-chain amine of K/Orn/Dab/Dap, the thiol sulfur replaces the halogen on its CH2 (X(acetyl) notation); acetyl = acetyl (haloacetyl before ring closure) on the side-chain amine, O=C(C[*:1])[*:2]; COCH2 = acetyl group that carries the bridge; hCys = N[C@@H](CCS)C(=O)O Where only a bound is given, the exact number is not on record here.

From US20260008815A1, “CYCLIC PEPTIDE OR SALT THEREOF, AND USES THEREOF” (FUJIFILM Corporation, priority 2023, published 2026) come the findings set out here.

Series [1] concerns the target T1, Recombinant Human FGFR2 alpha (IIIc) Fc Chimera Protein (Homo sapiens, UniProt P21802).
T1 construct: Fc (chimera); purchased R&D systems 712-FR-050
Description: SPR binding affinity of chemically synthesized cyclic peptide to immobilized FGFR. Conditions: SPR binding amount at 10 nmol/L cyclic peptide, 25° C., per one molecule of FGFR; chemically synthesized product. The method, then:
The binding affinity of the cyclic peptide to FGFR was evaluated using a surface plasmon resonance (SPR) method.
(§1) A CM5 sensor chip (Cytiva, 29149603) was set in Biacore-T200 (manufactured by Cytiva) which is a surface plasmon resonance device, and an HBS-EP buffer (Cytiva, BR100826) was added as a running buffer at a flow rate of 10 μL/min to equilibrate the flow channel. Next, 70 μL of a mixed aqueous solution of 0.2 mol/L 1-(3-dimethylaminopropyl)-3-ethylcarbodiimide (EDC) and 0.05 mol/L N-hydroxysuccinimide (NHS) was added to activate the sensor chip. Then, Recombinant Human FGFR2 alpha (IIIc) Fc Chimera Protein CF (R&D systems, 712-FR-050) prepared at 50 nmol/L in an Acetate 4.5 buffer (Cytiva, BR100350) was added thereto to perform immobilization at about 5000 RU. Thereafter, the blocking treatment was performed with an ethanolamine solution. In addition, in another flow channel of the same sensor chip, blocking treatment was performed immediately after activation without immobilizing FGFR.
(§2) A cyclic peptide diluted to 10 nmol/L using HBS-EP was added to each flow channel of the FGFR-immobilized sensor chip produced above at 25° C. for 10 minutes, then HBS-EP was allowed to flow as a running buffer for 30 minutes, and the binding of the cyclic peptide to FGFR was measured. Thereafter, a regeneration treatment of removing the bound cyclic peptide was performed by repeating the flow of a regeneration liquid in which sodium chloride powder was dissolved in Glysine 1.5 (Cytiva, BR100354) to a final concentration of 0.15 mol/L for 1 minute in each flow channel twice. The binding amount of the cyclic peptide was evaluated from the difference between the measured value of Biacore-T200 in the flow channel in which FGFR was immobilized and the measured value of Biacore-T200 in the flow channel in which FGFR was not immobilated, in a case where a 10 nmol/L cyclic peptide was allowed to flow.
The binding amount of the cyclic peptide evaluated above was normalized to the binding amount of the cyclic peptide molecules per one molecule of FGFR using the molecular weights of the cyclic peptide and FGFR, and the binding affinity to FGFR was evaluated according to the following evaluation criteria. The evaluation result preferably satisfies the evaluation criteria A, B, or C.

Series [2] can be described thus: Molecular stability after reducing agent (DTT) treatment, LC. It is filed as physicochemical. Conditions: residual rate after DTT aqueous solution, room temperature, 1 hour. The procedure:
The molecular stability of the cyclic peptide was evaluated by analyzing an aqueous solution of the cyclic peptide treated with a reducing agent by liquid chromatography (LC).
The reducing agent treatment was performed under the following conditions based on the concentration of glutathione contained in the cells. 25 μL of a 0.2 mg/mL cyclic peptide aqueous solution was prepared, 58.8 μL of a 12.6 mmol/L DTT aqueous solution was added to the aqueous solution, and the mixture was incubated at room temperature for 1 hour to obtain an aqueous solution of the cyclic peptide treated with a reducing agent. The DTT aqueous solution was used by diluting a 1 mol/L (+−)-dithiothreitol (DTT) solution (FUJIFILM Wako Pure Chemical Corporation, 044-33871) with water. The total area of all the peaks in LC/MS of the cyclic peptide before the reducing agent treatment was set to 100%, and the proportion of the total area of all the peaks in LC/MS of the aqueous solution of the cyclic peptide treated with the reducing agent was determined to calculate the residual rate of the cyclic peptide, and the molecular stability was evaluated according to the following evaluation criteria. The evaluation result preferably satisfies the evaluation criteria A, B, or C.
The LC used for the evaluation of molecular stability was set to the following conditions. • LC device: Prominence series (pump, column oven, autosampler, detector) (manufactured by Shimadzu Corporation) • Detector: photodiode array detector (SPD-M20A), measurement wavelength of 280 nm • Column: TSKgel ODS-100V, inner diameter of 4.6 mm×length of 150 mm, particle diameter of 5 μm (manufactured by Tosoh Corporation) • Eluent A: solution containing 0.1% trifluoroacetic acid as solute, and solvent is 100% water • Eluent B: solution containing 0.1% trifluoroacetic acid as solute, and solvent is 100% acetonitrile • Flow rate: 1.0 mL/min • Injection amount: 25 μL • Gradient: 20% to 50%: Eluent B (0 to 15 minutes), 100%: Eluent B (15 minutes) • Column temperature: 40° C.

Series [3] has as its target T2, Recombinant Human FGFR2 alpha (IIIc) Fc Chimera Protein, CF (R&D systems, 712-FR-050) (human, UniProt P21802 22-377).
T2 construct: bought; not shown: Fc part of the chimera
In words: SPR, 10 nmol/L peptide over immobilized FGFR2-Fc. The method, then: as §1, §2

T1 sequence (P21802 with tags, fused parts or gaps limits assumed): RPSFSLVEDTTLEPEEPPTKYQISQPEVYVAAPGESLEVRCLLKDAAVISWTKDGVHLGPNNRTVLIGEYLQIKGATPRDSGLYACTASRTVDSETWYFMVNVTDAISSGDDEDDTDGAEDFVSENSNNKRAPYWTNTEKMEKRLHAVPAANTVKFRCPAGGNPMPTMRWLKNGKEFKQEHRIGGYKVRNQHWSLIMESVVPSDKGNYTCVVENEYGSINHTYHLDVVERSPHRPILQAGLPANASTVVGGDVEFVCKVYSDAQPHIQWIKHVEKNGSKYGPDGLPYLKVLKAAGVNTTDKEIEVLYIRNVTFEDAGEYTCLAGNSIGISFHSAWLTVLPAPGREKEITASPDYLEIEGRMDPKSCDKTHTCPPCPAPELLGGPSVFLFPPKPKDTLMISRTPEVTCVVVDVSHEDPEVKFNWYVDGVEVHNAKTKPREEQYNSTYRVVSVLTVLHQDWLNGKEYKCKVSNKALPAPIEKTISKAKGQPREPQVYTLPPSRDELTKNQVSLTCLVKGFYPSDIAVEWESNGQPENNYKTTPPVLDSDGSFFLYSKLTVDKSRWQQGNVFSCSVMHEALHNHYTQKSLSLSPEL
T2 sequence (P21802 22-377, change not shown): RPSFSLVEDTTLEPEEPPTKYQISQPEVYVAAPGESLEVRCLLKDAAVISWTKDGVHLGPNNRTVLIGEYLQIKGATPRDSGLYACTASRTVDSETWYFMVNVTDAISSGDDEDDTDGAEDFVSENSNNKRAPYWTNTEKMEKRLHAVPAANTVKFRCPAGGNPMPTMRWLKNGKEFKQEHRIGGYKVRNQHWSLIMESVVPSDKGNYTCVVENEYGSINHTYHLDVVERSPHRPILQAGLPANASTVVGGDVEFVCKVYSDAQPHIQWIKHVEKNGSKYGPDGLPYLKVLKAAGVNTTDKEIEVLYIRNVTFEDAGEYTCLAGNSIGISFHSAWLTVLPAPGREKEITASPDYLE

Turning to “433 (Q[hCys]PQNFINPVQWRYFQHYK(COCH2)NKKK; thioether 2-19 via acetyl) [compound 433]”, in series [1], the “Evaluation result of binding affinity to FGFR” value (“Evaluation result … to FGFR” for short) was “A (The binding amount is 0.7 molecules of the cyclic peptide/one molecule of FGFR or more.)”. Further, the “Evaluation result of reductive stability” value in series [2] is “A (The residual rate of cyclic peptide is 90% or more.)”.

Regarding “434 (QXPQNFINPVQWRYFQHYXNKKK; not fully specified; Description of Artificial Sequence: Cyclic peptide) [compound 434]”, the “Evaluation result … to FGFR” value in series [1] is on record as “A (The binding amount is 0.7 molecules of the cyclic peptide/one molecule of FGFR or more.)”. Also, the “Evaluation result of reductive stability” value in series [2] is given as “A (The residual rate of cyclic peptide is 90% or more.)”. Taken in the same sequence, the figures for “435 (QXPQNFINPVQWRYFQHYXNKKK; not fully specified; Description of Artificial Sequence: Cyclic peptide) [compound 435]” were “A (The binding amount is 0.7 molecules of the cyclic peptide/one molecule of FGFR or more.)” and “A (The residual rate of cyclic peptide is 90% or more.)”.

As to “437 (QK(COCH2)PQNFINPVQWRYFQHY[hCys]NKKK; thioether 2-19 via acetyl) [compound 437]”, the “Evaluation result … to FGFR” value in series [1] is given as “A (The binding amount is 0.7 molecules of the cyclic peptide/one molecule of FGFR or more.)”. Moreover, the “Evaluation result of reductive stability” value in series [2] is on record as “A (The residual rate of cyclic peptide is 90% or more.)”.

Consider “438 (QK(COCH2)PQNFINPVQWRYFQHY[hCys]NKKK; thioether 2-19 via acetyl) [compound 438]”, for which the “Evaluation result … to FGFR” value in series [1] was “A (The binding amount is 0.7 molecules of the cyclic peptide/one molecule of FGFR or more.)”. In series [2], the “Evaluation result of reductive stability” value was “A (The residual rate of cyclic peptide is 90% or more.)”. For the molecule “439 (QXPQNFINPVQWRYFQHYXNKKK; not fully specified; Description of Artificial Sequence: Cyclic peptide) [compound 439]”, the “Evaluation result … to FGFR” value in series [1] is given as “A (The binding amount is 0.7 molecules of the cyclic peptide/one molecule of FGFR or more.)”. For the same molecule, the “Evaluation result of reductive stability” value in series [2] is listed as “A (The residual rate of cyclic peptide is 90% or more.)”.

Take “440 (QXPQNFINPVQWRYFQHYXNKKK; not fully specified; Description of Artificial Sequence: Cyclic peptide) [compound 440]”: in series [1], the “Evaluation result … to FGFR” value is given as “A (The binding amount is 0.7 molecules of the cyclic peptide/one molecule of FGFR or more.)”. Also, the “Evaluation result of reductive stability” value in series [2] is given as “A (The residual rate of cyclic peptide is 90% or more.)”. Turning to YKEENYLDPEQYQYFIYFXYKKK (thioether ring (K(acetyl))-(Hcy), chemically synthesized) [cyclic peptide SEQ ID NO: 446], in series [3], the “binding amount (SPR, cyclic peptide molecules bound per FGFR molecule at 10 nmol/L peptide)” value was ≥ 0.7 moleculesofthecyclicpeptide/onemoleculeoffgfr. Take QXPQNFINPVQWRYFQHYXNKKK (not fully specified; thioether ring (Dap(acetyl))-(Hcy), chemically synthesized) [cyclic peptide SEQ ID NO: 441]: the “binding amount (SPR, cyclic peptide molecules bound per FGFR molecule at 10 nmol/L peptide)” value in series [3] is ≥ 0.7 moleculesofthecyclicpeptide/onemoleculeoffgfr.

With QXPQNFINPVQWRYFQHYXNKKK (not fully specified; thioether ring (Hcy)-(Dab(acetyl)), chemically synthesized) [cyclic peptide SEQ ID NO: 435], in series [3], the “binding amount (SPR, cyclic peptide molecules bound per FGFR molecule at 10 nmol/L peptide)” value is ≥ 0.7 moleculesofthecyclicpeptide/onemoleculeoffgfr. For the molecule QXPQNFINPVQWRYFQHYXNKKK (not fully specified; thioether ring (Hcy)-(Orn(acetyl)), chemically synthesized) [cyclic peptide SEQ ID NO: 434], the “binding amount (SPR, cyclic peptide molecules bound per FGFR molecule at 10 nmol/L peptide)” value in series [3] is ≥ 0.7 moleculesofthecyclicpeptide/onemoleculeoffgfr. Still for that read-out and setting: as for QK(COCH2)PQNFINPVQWRYFQHY[hCys]NKKK (thioether 2-19 via acetyl″, chemically synthesized) [cyclic peptide SEQ ID NO: 438], the figure is ≥ 0.7 moleculesofthecyclicpeptide/onemoleculeoffgfr. Regarding QXPQNFINPVQWRYFQHYXNKKK (not fully specified; thioether ring (Orn(acetyl))-(Hcy), chemically synthesized) [cyclic peptide SEQ ID NO: 439], in series [3], the “binding amount (SPR, cyclic peptide molecules bound per FGFR molecule at 10 nmol/L peptide)” value is ≥ 0.7 moleculesofthecyclicpeptide/onemoleculeoffgfr. On the same count and under the same terms, as for Y[hCys]EENYLDPEQYQYFIYFK(COCH2)YKKK (thioether 2-19 via acetyl″, chemically synthesized) [cyclic peptide SEQ ID NO: 442], the figure is ≥ 0.7 moleculesofthecyclicpeptide/onemoleculeoffgfr; as for YXHENYLDPEQYQYFHYFKYKKK (thioether ring (Hcy)-(K(acetyl)), chemically synthesized) [cyclic peptide SEQ ID NO: 452], ≥ 0.7 moleculesofthecyclicpeptide/onemoleculeoffgfr; as for QXPQNFINPVQWRYFQHYXNKKK (not fully specified; thioether ring (Dab(acetyl))-(Hcy), chemically synthesized) [cyclic peptide SEQ ID NO: 440], ≥ 0.7 moleculesofthecyclicpeptide/onemoleculeoffgfr.

For the molecule YXEENYLDPEQYQYFIYFXYKKK (not fully specified; thioether ring (Orn(acetyl))-(Hcy), chemically synthesized) [cyclic peptide SEQ ID NO: 447], the “binding amount (SPR, cyclic peptide molecules bound per FGFR molecule at 10 nmol/L peptide)” value in series [3] is ≥ 0.7 moleculesofthecyclicpeptide/onemoleculeoffgfr. With YXHENYLDPEQYQYFHYFKKKK (thioether ring (Hcy)-(K(acetyl)), chemically synthesized) [cyclic peptide SEQ ID NO: 453], in series [3], the “binding amount (SPR, cyclic peptide molecules bound per FGFR molecule at 10 nmol/L peptide)” value was 0.1 to 0.5 moleculesofthecyclicpeptide/onemoleculeoffgfr. As to YXEENYLDPEQYQYFIYFXYKKK (not fully specified; thioether ring (Hcy)-(Orn(acetyl)), chemically synthesized) [cyclic peptide SEQ ID NO: 443], the “binding amount (SPR, cyclic peptide molecules bound per FGFR molecule at 10 nmol/L peptide)” value in series [3] is ≥ 0.7 moleculesofthecyclicpeptide/onemoleculeoffgfr. For Q[hCys]PQNFINPVQWRYFQHYK(COCH2)NKKK (thioether 2-19 via acetyl″, chemically synthesized) [cyclic peptide SEQ ID NO: 433], the “binding amount (SPR, cyclic peptide molecules bound per FGFR molecule at 10 nmol/L peptide)” value in series [3] is ≥ 0.7 moleculesofthecyclicpeptide/onemoleculeoffgfr. On to QK(COCH2)PQNFINPVQWRYFQHY[hCys]NKKK (thioether 2-19 via acetyl″, chemically synthesized) [cyclic peptide SEQ ID NO: 437], for which the “binding amount (SPR, cyclic peptide molecules bound per FGFR molecule at 10 nmol/L peptide)” value in series [3] is ≥ 0.7 moleculesofthecyclicpeptide/onemoleculeoffgfr. The same measure, in the same setting: as for YXEENYLDPEQYQYFIYFXYKKK (not fully specified; thioether ring (Dab(acetyl))-(Hcy), chemically synthesized) [cyclic peptide SEQ ID NO: 448], the figure is ≥ 0.7 moleculesofthecyclicpeptide/onemoleculeoffgfr. With XHENYLDPEQYQYFHYFKYKKK (thioether ring (Hcy)-(K(acetyl)), chemically synthesized) [cyclic peptide SEQ ID NO: 454], the “binding amount (SPR, cyclic peptide molecules bound per FGFR molecule at 10 nmol/L peptide)” value in series [3] was 0.1 to 0.5 moleculesofthecyclicpeptide/onemoleculeoffgfr.

Consider YCEENYLDPEQYQYFIYFCYKKK (disulfide 2-19 (inferred), chemically synthesized) [cyclic peptide SEQ ID NO: 451], for which the “binding amount (SPR, cyclic peptide molecules bound per FGFR molecule at 10 nmol/L peptide)” value in series [3] was < 0.1 moleculesofthecyclicpeptide/onemoleculeoffgfr. For YXEENYLDPEQYQYFIYFXYKKK (not fully specified; thioether ring (Hcy)-(Dab(acetyl)), chemically synthesized) [cyclic peptide SEQ ID NO: 444], the “binding amount (SPR, cyclic peptide molecules bound per FGFR molecule at 10 nmol/L peptide)” value in series [3] was 0.5 to 0.7 moleculesofthecyclicpeptide/onemoleculeoffgfr. Still for that read-out and setting: the figure for YXEENYLDPEQYQYFIYFXYKKK (not fully specified; thioether ring (Dap(acetyl))-(Hcy), chemically synthesized) [cyclic peptide SEQ ID NO: 449] is ≥ 0.7 moleculesofthecyclicpeptide/onemoleculeoffgfr.
